The record followed here is patent US20220033470A1.

For assay [1], the target named is human insulin receptor (human) (UniProt P06213). The assay is described as follows: SPR (Biacore), soluble sortilin 50-500 nM over immobilized human insulin receptor. (In general: In SPR one partner is held on a chip, and binding of the other changes the refractive index at the surface.)
The target in assay [2] is murine insulin receptor (murine) (UniProt P15208). The assay is described as follows: SPR (Biacore), soluble sortilin 50-500 nM over immobilized murine insulin receptor.
In assay [3] the target is human insulin receptor (human) (UniProt P06213). The assay is described as follows: Surface plasmon resonance (Biacore); human insulin receptor immobilized (0.0609 pmol/mm^2), sortilin injected at 50-500 nM, CaHBS buffer.
Assay [4] concerns the target murine insulin receptor (murine) (UniProt P15208). The assay is described as follows: Surface plasmon resonance (Biacore); murine insulin receptor (mIR) immobilized (0.0607 pmol/mm^2), sortilin injected at 50-500 nM, CaHBS buffer.

Regarding “Soluble sortilin (from UniProt Q99523 78-755) (receptor)”, the Kd was 40 nM in assay [1], 40 nM in assay [2], 46 nM in assay [3] and 42 nM in assay [4].

Broadly, the Kd is the free concentration of one partner at which half of the binding sites on the other are occupied at equilibrium, for simple one-to-one binding. Read a low Kd as tighter binding.
